Results taken from PMC7736792.

Test system: p44 (in p44/p62 complex);p62 (in p44/p62 complex) (Chaetomium thermophilum;Chaetomium thermophilum)
Test: fluorescence anisotropy
Details: 20 mM HEPES pH 7.5, 30 mM KCl, 5 mM MgCl2, 1 mM TCEP, 5 nM DNA, room temperature

**Q.** How did the Kd turn out when “GACTACGTACTGTTACGGCTCCATCTCTACCGCAATCAGGCCAGATCTGC [undamaged ssDNA 50 nt]” was run?
**A.** Its Kd is 840 nM.

**Q.** For “GACTACGTACTGTTACGGCTCCATCTCTACCGCAATCAGGCCAGATCTGC / GCAGATCTGGCCTGATTGCGGTAGCGATGGAGCCGTAACAGTACGTAGTC [undamaged dsDNA 50 bp]”, which Kd is on record?
**A.** Its Kd is 1180 nM.

**Q.** “TTTTTTTTTTTTTTTCCCGGCCATGCGAAGCATGGCCGGGTTTTT [open fork hairpin]” was tested. Which Kd did it give?
**A.** Its Kd is 210 nM.
